The test system of data set [1] is CHO cells. The data set is described as follows: Selective labelling in cells after CPTG pre-incubation. Type of data set: cell-based. As to conditions: 5 µM CPTG 10 min, then 5 µM fluorescent substance 4 20 min. The source says:
In a further experiment, the mutant AGTM as described in Example 6 is amplified with the primers SEQ ID NO:34 and SEQ ID NO:36 and cloned between the NheI and BgIII sites of the vector pEGFP-Nuc. The […]-galactosidase gene is amplified with the primers SEQ ID NO:37 and SEQ ID NO:38 and subcloned into this vector via BgIII/BamHI to result in a vector with an AGTM-[…]-Gal fusion gene. The hAGT gene is amplified by the principle described under Example 1 with the primers SEQ ID NO:39, SEQ ID NO:40, SEQ ID NO:34, and SEQ ID NO:35 and cloned via NheI/BgIII into pEGFP-Nuc to result in an AGT-NLS3 fusion gene coding for the mutation Gly160Trp. After transient expression of both AGT mutants in parallel, the cells are incubated with 5 µM CPTG for 10 min and subsequently with 5 µM of substance 4 of Juillerat et al., Chem Biol 10:313-317, 2003, for 20 min. The cells are washed and imaged as described under Example 1.

A short description of data set [2]: Periplasmic expression / stability under oxidizing conditions. More on the design: species or system E. coli. Here is the method:
The activities towards AGT substrates are measured after purification without addition of reducing agents such as dithiothreitol or beta-mercaptoethanol. Alternatively, the activities of mutant AGT and wild type human are compared after their export into cellular compartments with oxidising redox potential (e.g. the periplasm of E. coli due to their fusion to appropriate signal sequences. Activity towards AGT substrates under reducing and oxidising conditions is compared by performing the reactions in the presence or absence of reducing agents such as dithiothreitol or beta-mercaptoethanol.
The mutant AGT gene of Example 1 is amplified and cloned as described in Example 1 with the oligonucleotides SEQ ID NO:3, SEQ ID NO:10 and SEQ ID NO:4, SEQ ID NO:9 causing the further mutation Cys62Ala in the gene upon their incorporation by PCR. Protein expression, purification and determination of yield is carried out as described in Example 1. The mutant gene is PCR amplified with the primers SEQ ID NO:11, SEQ ID NO:12 that contain SfiI restriction sites to subclone the gene in fusion to the g3 protein of filamentous phage in the vector pAK100 (Krebber et al., J Immunol Methods 201:35-55, 1997). […] The supernatant is directly subjected to quantification of protein yield via SDS-PAGE and activity assays as described in Example 1.
Stability under oxidizing conditions: The mutant gene is PCR amplified with the primers SEQ ID NO:11 and SEQ ID NO:28 to subclone the gene into pAK100, as described in Example 2. […] To compare the reactivity of […] (Juillerat et al., Chem Biol 10:313-317, 2003) and the mutant, samples are incubated with 1 µM BG-Bt for 50 min, quenched with SDS-Laemmli buffer and analyzed by western blotting using neutravidin peroxidase conjugate (Pierce) or a monoclonal mouse anti-FLAG IgG antibody (M2, Sigma) and a secondary anti-mouse-IgG::HRP conjugate, and Renaissance reagent plus (NEN). […] The anti-FLAG IgG antibody is used to estimate the total amount of soluble AGT protein, whereas neutravidin quantifies the reactive portion of it. […]

Data set [3] is described as follows: Competition of N^9-substituted and N^9-unsubstituted O^6-benzylguanine substrates. The data set is classed as biochemical. Here is the method:
Such N^9-substituted O^6-alkylguanine substrates are the natural substrates of the wild type AGT. The ability of wild type AGT or mutant AGT to react with N^9-modified O^6-alkylguanine substrates is measured as the rate of its reaction with such substrates, e.g. with the low molecular weight N^9-cyclopentyl-O^6-benzylguanine in presence of biotinylated N^9-unsubstituted O^6-alkylguanine substrates in competition experiments. Subsequently, samples are subjected to Western blotting and detection with streptavidin derivates to obtain kinetic constants for these substrates. Alternatively, the reactivity towards such substrates is measured as the inhibition of the reaction of AGT with BG-Cy3. The reaction of AGT with BG-Cy3 is followed by an increase of Cy3 fluorescence intensity upon binding to AGT, after preincubation or in direct competition with the N^9-modified O^6-alkylguanine substrate.
Selected AGT mutants are subcloned into pGEX2T, expressed, purified and characterized as described in Example 1. Discrimination between N^9 substituted and N^9 unsubstituted O^6-benzylguanine substrates is evaluated by competition experiments for purified mutated GST-AGT in vitro with N^9-substituted and N′-unsubstituted O^6-benzylguanine. Aliquots of 0.2 μM GST-AGT are incubated with varying concentrations of N^9 substituted substrate (0, 0.5, up to 100 µM) and 0.5 µM biotinylated O^6-benzylguanine (BG-Bt, substance 3a of Juillerat et al., Chem Biol 10:313-317, 2003) in 50 mM HEPES pH 7.3 and 1 mM DTT at room temperature. After 45 min reactions are quenched by the addition of SDS-Laemmli buffer and heat denaturation. Samples are subjected to SDS-PAGE and Western blotting analysis (neutravidin-peroxidase conjugate (PIERCE), Renaissance reagent plus (NEN)). The intensity of the corresponding bands is quantified by a Kodak Image Station 440.

Data set [4] relates to salmon sperm DNA. The data set is described as follows: DNA binding as inhibition by DNA of the reaction with BG-Cy3. The settings on record: salmon sperm DNA 25 µg/ml. On the procedure: The interaction with DNA is e.g. quantified by assessing the amount of copurified DNA from E. coli extracts under conditions of low salt and absence of DNase. This is compared between parallel purifications of fusion proteins (e.g. fusions to GST) of wild type (human) and mutant AGT by spectroscopic methods (ratio of absorbance at 260 and 280 nm). Alternatively the interaction of AGT with DNA is measured as the inhibition of AGT reactivity with BG-Cy3 (O^6-(4-aminomethyl-benzyl)-guanine coupled to Cy3) as substrate in the presence of DNA. This approach takes advantage of a marked increase of fluorescence of the Cy3 fluorophore upon reaction of BG-Cy3 with AGT. The reaction kinetics of AGT with a Cy3-labeled benzylguanine derivative is followed by fluorescence intensity measurements over several hours at various concentrations of salmon sperm DNA.
DNA binding: DNA binding is measured as inhibition by DNA of the reaction of AGT mutants with BG derivatives. The reaction rate of AGT mutants in a reaction mixture containing salmon sperm DNA (25 µg/ml) instead of oligonucleotide is measured with the BG-Cy3 assay. The reaction rate is determined by fitting the obtained data to a monoexponential increase to maximum.

B1: AGTM: AGT mutant Cys62Ala, Gln115Ser, Gln116His, Lys125Ala, Ala127Thr, Arg128Ala, Gly131Lys, Gly132Thr, Met134Leu, Arg135Ser, Cys150Asn, Ser151Ile, Ser152Asn, Asn157Gly, Ser159Glu, truncated after … (protein, UniProt P16455 1-207, looked up, variant C62A Q115S Q116H K125A A127T R128A G131K G132T M134L R135S C150N S151I S152N N157G S159E del183-207)
Methylated-DNA--protein-cystei …: MDKDCEMKRTTLDSPLGKLELSGCEQGLHEIKLLGKGTSAADAVEVPAPAAVLGGPEPLMQATAWLNAYFHQPEAIEEFPVPALHHPVFQQESFTRQVLWKLLKVVKFGEVISYSHLAALAGNPAATAAVKTALSGNPVPILIPCHRVVNINGAVGGYEGGLAVKEWLLAHEGHRLGKPGLG
modifications: His tag
As to B1, the “reaction with CPTG inside cells” value in data set [1] is “does not react with CPTG”. Besides, the sensitivity to oxidation entry in data set [2] is “reduced sensitivity to oxidation”. In addition, the “reduced reactivity with N^9-substituted O^6-alkylguanine derivatives (factor)” value in data set [3] is listed as no less than 10. Also, the “reduced reactivity towards O^6-alkyl-N^9-deoxyribosylguanine or N^9-cyclopentyl-O^6-benzylguanine” value in data set [3] (comparator not stated) is recorded as “at least 100 fold”. Further, the “reduction of reaction rate to BG-Cy3 in presence of DNA” value in data set [4] was “unchanged”.

The values above are taken from patent publication US7888090B2, “Mutants of O6-alkylguanine-DNA alkyltransferase” (Ecole Polytechnique Federale de Lausanne, priority 2004, dated 2011).
